Test: yeast display, Sf9 membrane polyspecificity reagent, FACS + sequencing; frameworks hold sequencing errors
Method in brief: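 Sorting gates, low and high (top ~1%), were placed on anti-HA fluorescence to track expression and on streptavidin fluorescence to track reagent binding. A clone's polyreactivity label is taken from the gate it came out of. The reagent was 10% biotinylated, detergent-solubilized Sf9 membrane, applied for 1 hour at 4 °C to galactose-induced yeast display cells.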

Sequence: QVQLVESGGGLGQAGGSLRLSCAASGRTFTGYAMGWYRQAPGKERELVATISRSGGTTSYADSVKGRFTISRDNAKNTVYVQMNSLKPVDTAVYYCAADRRSRPYYYWGQGTQVTVSS
- polyreactivity (PSR sort gate): high polyreactivity

Sequence: QVQLVESGGGLGQAGGSLRLSCAASGSIFYRYAMGWYRQAPGKERELVAAISSTGSTYYADSVKGRFTISRDHAKNTVYLEMNSLTPEDTAVYYGAARQGYRSYRRYDYWGQGTQVTVSS
- polyreactivity (PSR sort gate): high polyreactivity

Sequence: QVQLVESGGGLGQAGGSLRLSCAASGSTFQTKAMGWYRQAPGKERELVAAINSGGGTNYADSVKGRFTISRDNAKNTVYLQMNSLKPEDTAVYYCATDVLPRKYVSDYPSGAYDYWGQGTQVTVSS
- polyreactivity (PSR sort gate): low polyreactivity

Sequence: QVQLVESGGGLGQAGGSLSLTCAASGSIFARNAMGWYRQAPGKERELVAAISTGGGSTYYADSVKGRFTISRDNAQNTVYLQMNSLKPEETEVYYCAAVGRSYYGHDYWGQGTQVTVSS
- polyreactivity (PSR sort gate): low polyreactivity

Sequence: QVQLVESGGGLGQAGVSLRLSCAASGRIFYFNAMGWYRQAPGKEREMVAANSWSGGSTYYADSVKGRFTISRDNAKNTVYLQMNSLKPEDTAVYYCATDSYRQGDYYLGRVDYWGQGTQVTVSS
- polyreactivity (PSR sort gate): low polyreactivity

Sequence: QVQLVESGGGLLHAGGSLRLSCAASGSTFILYTMGWYRQAPGKERELVAAISRSSGGTYYADSVKGRFTISRDTAKNTVYLQMNSLKTEDTAVYYCAARSRGAKYDYWGQGTQVTVSS
- polyreactivity (PSR sort gate): high polyreactivity

Sequence: QVQLVESGGGLLQAGGSLRKSCAASGFTFDENSMGGYRQAPAINYSGASTYYAVSVKGRFTISRDNAKNTVYLQMNSLKPEDTAVYYCAAEVVAQMIYWGQGTQVTVSS
- polyreactivity (PSR sort gate): low polyreactivity

Sequence: QVQLVESGGGLLQAGGSLRLSCAASGFIFRGYNMGWYRQAPGKERELVAAITTTSSTYYADSVKGRFTISRDNAKNTVYLQMNSLKPEDTAVYYCAALFYRYGYLYNYWGQGTQVTVSS
- polyreactivity (PSR sort gate): high polyreactivity

Sequence: QVQLVESGGGLLQAGGSLRLSCAASGFNFGRYAMGWYRQAPGKERELVATISRSGGSTYYADSVKGRFTISRDNSKNTVFLQMNSLKPEDTAVYYCNALILPTKMGYWGQGTQVTVSS
- polyreactivity (PSR sort gate): low polyreactivity

Sequence: QVQLVESGGGLLQAGGSLRLSCAASGFTIVCYAMGWYRQAPGKERELVAAISSGGSTYYADSVKGRFTISRDNAKNTVFLLMNSLKPEDTAVYYCAADREYYDEYAGYEYWGQGTQVTVSS
- polyreactivity (PSR sort gate): low polyreactivity

Sequence: QVQLVESGGGLLQAGGSLRLSCAASGIIFHYNAMGWYRQAPWKQRELVAAITSTDNTNYADSVKGRFTISRDNAKNTVYLQMNSLIAEATAVYYCNASVGRDSAYDYWGQGTQVTVSS
- polyreactivity (PSR sort gate): low polyreactivity

Sequence: QVQLVESGGGLLQAGGSLRLSCAASGIIYRPYAMGWYRQAPGKERELVAAITGSGVSTYYADSVKGRFTISRDNAKNTVYLQMNSLKPEDTAVYYCAKRYNRGYHRYDSWGQGTQVTVSS
- polyreactivity (PSR sort gate): low polyreactivity

Sequence: QVQLVESGGGLLQAGGSLRLSCAASGRIFGQYAMGWYRQAPGKEREFVAGISTTGGSTYYADSVKGRFTISRDNAKNTVYLQMNSLKPEDTAVYYCAVRINWSRWYHYYTYNYWGQGTQVTGSS
- polyreactivity (PSR sort gate): high polyreactivity

Sequence: QVQLVESGGGLLQAGGSLRLSCAASGRIFTLYDMGWYRQAPGKERELDAAISNSAGSTYYADSVKGRFTISLDNAKNTVYLQMNSLKTEDTAGYYCARSFSYWGYRSVYYWGQGTQVTVSS
- polyreactivity (PSR sort gate): high polyreactivity

Sequence: QVQLVESGGGLLQAGGSLRLSCAASGRIFVHYVMGWYRQAPGKERELVAAINVSGGGTYYADSVKGRFTISRDNAKNTVYLQMNCLKPEDTAVFYCAAGTTQDWPFSSRSYFGHDSWGQGTQVTVSS
- polyreactivity (PSR sort gate): low polyreactivity

Sequence: QVQLVESGGGLLQAGGSLRLSCAASGRTFYKNAMGWYRHAPRKERELVAAITSGGSTNYADSVKGRFTISRDNAKNSVYLQMNSLKSEDTAVSACAAQLFPYYRSRYSYINNYDYSGQGTQVTVSS
- polyreactivity (PSR sort gate): high polyreactivity

Sequence: QVQLVESGGGLLQAGGSLRLSCAASGRTLVSYAMGWYRQAPGKERELVATISWSGGSTYYADSVKGRFTISRDTAKNTVYLQIYSLKPEDTAGYDCNRSLTGYDELGYPVPYTYDYWGQGTQVTVSS
- polyreactivity (PSR sort gate): low polyreactivity

Sequence: QVQLVESGGGLLQAGGSLRLSCAASGSIFERNAIGWYRQAPGKERELVAVITRSGGSTYYADSVKGRFTISRDNAKNTVYLQMNSLKREDTAVYYCNARTAYFYGLDYWGQGTQVTVSS
- polyreactivity (PSR sort gate): high polyreactivity

Sequence: QVQLVESGGGLLQAGGSLRLSCAASGSIFLYYAMGWYRQAPGKERELVAGISRGGGTTYYADSVKGRFTISRDNAKNTVYLQMNSLKPEDTAFYYCATVFWRSKHEYWGQGTQVTVSW
- polyreactivity (PSR sort gate): high polyreactivity

Sequence: QVQLVESGGGLLQAGGSLRLSCAASGSISAQYALGWYRQAPGKERELVAAIDFSGGSTYYADSVKGRFTISRDNAKNTVYLQRNSLKPEDTAVYYCAARGDGDPSTDITLVEYDYWGQGTQVTVSS
- polyreactivity (PSR sort gate): low polyreactivity

Sequence: QVQLVESGGGLLQAGGSLRLSCAASGSTFDTYDMGWYRQAPGKERELVAARNSGGDTNYADSVKGRFTISRDNAKNTVYLQMNSLKPEDTAVYYCAVVTYSYPNWYGYWGPGTQVTVSS
- polyreactivity (PSR sort gate): high polyreactivity

Sequence: QVQLVESGGGLLQAGGSLRLSCAATGITFDRYAMGWYRQAPGKERELVAAITSGGRTYYADSVKGRFTISRDNAKNTVYLQMNSLKPEDTAVYYCNATRGQYVGRYYYWGQGTQVTVSS
- polyreactivity (PSR sort gate): high polyreactivity

Sequence: QVQLVESGGGLLQAGGSLRLSCADSGYTFRAYALGWYRQAPGKERELVAAISRGGSTNYADSVKGRFTISRDNAKNTVYLQMYSLKPEDTAVYYCNTAYIVWYSSSYGAYYSGAFDYWGQGTLVTVSS
- polyreactivity (PSR sort gate): high polyreactivity

Sequence: QVQLVESGGGLLQAGGSLRLSCSASGSTFDDYAMGWYRQAPGKERELVAAIRWSGGSTYYADSVKGRFTISRDNAKNTVYLQMKSLKPEDTAVYYCNADGRRGRYDYWGQGTQVTVSS
- polyreactivity (PSR sort gate): low polyreactivity

Sequence: QVQLVESGGGLLQAGGSLRLSFAASGSIVGPYGRGWYRQAPGKERELVAAISTVGGSTYYADSVKGRFTISRDNAKNTVYLQMNSLTPEDTAGYYCAKVPRYIELSRQATHSYDYWGHGTQVTVSS
- polyreactivity (PSR sort gate): low polyreactivity

Sequence: QVQLVESGGGLLQAGGSLRLSSAASGIIFYAYAMGWYRQAPGKERELVAAITFSAVSTYYADSVKGRFTISRDNAKNTVYLQMNCLKPEDTAVYYCAAEAYKHGVWDYDYWGQGTQVTVSA
- polyreactivity (PSR sort gate): low polyreactivity

Sequence: QVQLVESGGGLLQAGRSLRLSCAASGSTFRAYTMGWYRQAPGIERELVAAINSGGSTYYADSVKGRFTISRDNAKNTVYLQMNSLKAEDTAVYYCNRRFYRAVKYGYWGQGTQVTVSS
- polyreactivity (PSR sort gate): low polyreactivity

Sequence: QVQLVESGGGLLQARGSLRLTCAASGIIFIKYAMGWYRQPPGKDRELVASSTSGGSTHYADSVKGRFTISRDNAKNTVYLQMNSLIPEETSVYYCNADILRHDAYFKDRYQAGSYWGLGTQVTVSS
- polyreactivity (PSR sort gate): low polyreactivity

Sequence: QVQLVESGGGLVEAGGSLRLSCAASGINFWVNAMGWYRQAPGKERELVAAIRSDGSTKYADSVKGRFSSSRDNAKNTVYLQMNSLKPEDTAIYYCAKRDFSYPWLRDFYYWGQGTQVTVSS
- polyreactivity (PSR sort gate): low polyreactivity

Sequence: QVQLVESGGGLVEAGGSLRLSCAASGRIFKYYAMGWYRQAPGKERELVAAISRGGSTYYADSVKGRFTISRDNAKNTVYLQMNSLKPEDTAVYFCAAVNGWRRVLRFDYWGQGTQVTVSS
- polyreactivity (PSR sort gate): high polyreactivity

Sequence: QVQLVESGGGLVEAGGSLRLSCAASGRISQSNAMGWYRQAPGKESELVAAISWRGGSTYYADSVKGRFTISRDNAKNTVYLEMNSLKPEDTAVYYCGAKSWYAFYYRHPYDYWGQGTQVTVSS
- polyreactivity (PSR sort gate): high polyreactivity

Sequence: QVQLVESGGGLVEAGGSLRLSCAASGRTFFKYTMGWYRQAPGKERELVSAITGSGASTYYADSVKGRFTISRDNAKNTVYLQMNSLKPEDTAVYYCAAVLTVKKGDKYGYWGQGTQVTVSS
- polyreactivity (PSR sort gate): high polyreactivity

Sequence: QVQLVESGGGLVEAGGSLRLSCAASGSILIYVMGWYRQAPGKERDLFASITFSGGSTYYADSVKGRFTISRDNAKNSVYLQMYRLKPEVTAVYYCAAVPLWDYKFFYYLLYDYWGQGTQVTVSS
- polyreactivity (PSR sort gate): low polyreactivity

Sequence: QVQLVESGGGLVEAGGSLRLSCAASGSTFRRYAMGWYRQAPVKERELVAAISTRGGSTYYADSVKGRFTISRDNAKNTVYLQMNSLKPEDTEVYYCAADPYYTLGYYYWGQGTQVTVSS
- polyreactivity (PSR sort gate): high polyreactivity

Sequence: QVQLVESGGGLVEAGGSLRLSCAASGSTINYNAMGWYRQAPGKERELVAAIDSGVSTNYADSVNGRFTISRDNAKNTVYLQMNSLKPEDTAVYYCAVGGAGSDDYWGQRTQVTVSS
- polyreactivity (PSR sort gate): low polyreactivity

Sequence: QVQLVESGGGLVEAGGSLSLSCAASGSTFYKYSMGLYRQAPGKESELVAAITGSGVSTYYADSVKGRFTMSRDNAKNTVYLQMNSLKPDDTAVYYCNAESRSRPYTSSYDYWGQGTQVTVSS
- polyreactivity (PSR sort gate): high polyreactivity

Sequence: QVQLVESGGGLVEPGGSLRLSFASSGRTYQFYVMGWSRQAPGKERELVASIRSGGSTNYADSVKGRFTISRDNAKNTVYLLMNSLKPEDTALYYCAARVASPYYRYVYWGKGTQVTVSS
- polyreactivity (PSR sort gate): low polyreactivity

Sequence: QVQLVESGGGLVHAGCSLRLSCDASGRIFKNYAMGWYRQAPGKERELVAAISWSGGRTYYADSVKGRFTISRDYAKNTVYLQMHRLKPEDTEVYYCATAARRGPTSIEPFGYGSWGQGTQVTVSS
- polyreactivity (PSR sort gate): high polyreactivity

Sequence: QVQLVESGGGLVHAGGCLRLSFAASGFIFVVNPMGWYRPAPGKERELVAAINTSRGSTSYADSVKGRFTISRDNAKNTVYLQMNSVKPEDNAVYYCARDVWEKYRQSWGYVPLQGYDYCGQGTQVTVSS
- polyreactivity (PSR sort gate): low polyreactivity

Sequence: QVQLVESGGGLVHAGGPLRLSCAASGGIFFSYAMGWYRQAPGKERELVAAIRTNGGTTYYADSVKGRFTISRDNAKNTVYLHMNSLKPEETAVYDCAALPGGYYDRGEYDYWGQGTQVTVSS
- polyreactivity (PSR sort gate): low polyreactivity

Sequence: QVQLVESGGGLVHAGGRLRLSCAASGRTFVSYVMGWYRQAPGKERELVAAISGNGGRTYYADSVKGRFTISRDNAKNTVYLQMNSLKPEDTAVYYCAAELFVSYFDVLMYYWGQGTQVTVSS
- polyreactivity (PSR sort gate): high polyreactivity

Sequence: QVQLVESGGGLVHAGGSIRLSCAASGSIFRLYAMGWYRQAPGKERELVATISQRGGRTYYADSVKGRFTISRDNAKNTVYLQMNILKPEVTAVYYCNADHYYPWLDYWGLGTQVTVSS
- polyreactivity (PSR sort gate): high polyreactivity

Sequence: QVQLVESGGGLVHAGGSLRISCAASGRTFWVYAMGWYRKAPGKERELVAAISWSGGRTYYADSVKGRFTISRDNAKNTVYLQMNSLKPEDTAVYYCAATTGVRSRRYYYWGQGTQVTVSS
- polyreactivity (PSR sort gate): low polyreactivity
